Measured values: patent US5851983A, “Elastase inhibitory polypeptide and process for production thereof by recombinant gene technology” (Teijin Limited, priority 1987, dated 1998)

How the values were obtained:
[1] = target: elastase and trypsin; conditions: R. C. Thompson et al., Proc. Natl. Acad. Sci. USA, 83, 6692; cited from earlier work
[2] = test system: Porcine FXa; assay: Assay for Fxa inhibitory activity (Example 25); assay type: biochemical; conditions: final concentration up to ×10^-5 M; enzyme 1.0 × 10^-8 M
Procedure: I. Porcine FXa (Daichi Seiyaku)
Buffer: Buffer solution for each enzyme is as follow. Thrombin and FXa: 50 mM Tris-HCl, 7.5 mM EDTA-2Na, 175 mM NaCl (pH 8.4) […]
Substrate solution: for the enzymes F, G, H and I, the following substrate f, g, h or i, respectively, was dissolved to a final concentration shown in Table 14.
i. Ratio 1:1 mixture of the following compounds: [drawing 5]
To wells of an ELISA 96-well microtiter plate, were added a solution of (Arg^59 -Ala^107) SLPI obtained in Example 23 and then the enzyme solution, and the mixture was incubated at 37° C. for 10 minutes. Next, the substrate solution was added to develop the color, whose absorption was then measured at 405 nm. As a control, SLPI was used.

[3] = target: T1, polymorphonuclear leucocyte elastase from human sputum (Homo sapiens, UniProt P08246); assay: Simultaneous treatment with healthy human saliva and elastase (Examples 28, 29); assay type: in vitro ADME; conditions: 37° C.
T1 construct: Polymorphonuclear leukocyte elastase from human sputum (EPC Co; Funakoshi Yakuhin); purchased EPC Co. (via Funakoshi Yakuhin); host or cells: human sputum
T1 sequence (P08246 30-267): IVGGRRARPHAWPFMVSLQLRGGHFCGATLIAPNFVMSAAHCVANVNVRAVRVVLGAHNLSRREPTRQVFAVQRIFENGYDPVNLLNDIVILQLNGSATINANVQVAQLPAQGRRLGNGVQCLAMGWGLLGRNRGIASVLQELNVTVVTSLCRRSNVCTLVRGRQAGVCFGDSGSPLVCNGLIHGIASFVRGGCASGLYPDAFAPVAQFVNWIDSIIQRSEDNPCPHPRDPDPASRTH
Procedure: (1) Healthy human saliva was ultra-filtered through a 0.22 μm filter (Millex GS, Millipore), and to the filtered saliva were added SLPI and polymorphonuclear leucocyte elastase from human sputum (EPC, Funakoshi Yakuhin) to a final concentration of 50 μM respectively. The mixture was incubated at 37° C., samples were taken as time elapsed, and analyzed by SDS-PAGE as described in Example 27.
(2) Next, the band J was transferred to a membrane as described in Example 27, and N-terminal amino acid sequence was analyzed.
(1) According to the same procedure as described in Example 28, to healthy human saliva were dissolved SLPI and polymorphonuclear leucocyte elastase from human sputum to final concentrations of 50 μM and 100 μM respectively, and the mixture was incubated at 37° C. Samples were taken as time elapsed, and analyzed by SDS-PAGE.
(2) Next, N-terminal amino acid sequence of the band M was analyzed as described in Example 27.

[4] = target: T1, polymorphonuclear leucocyte elastase from human sputum; assay: Treatment with polymorphonuclear leucocyte elastase from human sputum (Examples 27, 30); assay type: in vitro ADME; conditions: 37° C.
Procedure: Polymorphonuclear leucocyte elastase from human sputum (EPC, Funakoshi Yakuhin) and SLPI were separately dissolved in a buffer (0.1M HEPES, 0.1M NaCl, 0.1% PEG 6000, pH 7.5) and the elastase solution was added to the SLPI solution, and the mixture was incubated at 37° C. Samples were taken as time elapsed, and to each sample were added Tris-HCl buffer (pH 6.8), SDS, 2-mercaptolethanol, glycerol, and Coomassie Brilliant Blue to final concentrations of 50 mM, 4 w/v %, 2 v/v %, 12 v/v % and 0.01 w/v % respectively. The mixture was subjected to SDS-polyacrylamide gel electrophoresis using Tricine (Sigma) as a polar buffer (Schagger, H., Anal. Biochem. 166, 368, 1987). After the electrophoresis, the gel was stained with Coomassie Brilliant Blue G-250, and decoloured with 50% (v/v) methanol/10% (v/v) acetic acid.
(1) A result of a test, wherein elastase was added to 100 μM SLPI to an elastase final concentration of 200 μM, and the mixture was incubated at 37° C. up to 192 hours taking samples as time elapsed, is shown in FIG. 20. […]
(3) Next, polypeptides thus generated were electrically transferred to a membrane (Immobilon-p^SQ Millipore) using a Milli Blot-SDE apparatus (Millipore). […] After drying, relevant bands were cut out, and the peptide was cleaved from the N-terminal using an Applied Biosystems Protein-Sequencer (Applied Biosystems; 477A), and after PTH-conversion, the resulting amino acid derivatives were analyzed by a PTH-Amino acid analyzer (Applied Biosystems, 120A) to determine the N-terminal amino acid sequence.
According to the same procedure as described in Example 27, (Asn^55 -Ala^107) SLPI (final concentration 100 μM) was treated with elastase (final concentration 200 μM) at 37° C. for 48 hours. The sample was separated by SDS-PAGE, and electrically transferred to a filter as described in Example 27, a band corresponding to a molecular weight of about 5,500 was cut out, and an N-terminal amino acid sequence was analyzed.

B1: SLPI: Human secretory leukoprotease inhibitor; recombinant SLPI of Reference Example 1 used as control (protein)
chain: SGKSFKAGVCPPKKSAQCLRYKKPECQSDWQCPGKKRCCPDTCGIKCLDPVDTPNPTRRKPGKCPVTYGQCLMLNPPNFCEMDGQCKRDLKCCMGMCGKSCVSPVKA
- Ki(E) compared with Ki(T) [1]: Ki(E) is roughly equivalent to Ki(T)
- inhibitory activity to FXa [2]: did not exhibit inhibitory activity
- SDS-PAGE bands on simultaneous treatment with healthy human saliva and elastase ([3]; 50 μM polypeptide, elastase 50 μM (Example 28) or 100 μM (Example 29)): after 96 hours, a new band J with a molecular weight of about 5,500 appeared
- cleavage site on simultaneous treatment with healthy human saliva and elastase ([3]; N-terminal sequencing of SDS-PAGE band): cleaved at the site between Thr^57 -Arg^58
- SDS-PAGE band of SLPI on treatment with elastase ([4]; 50 μM SLPI, not less than 100 μM elastase, one hour): disappeared significantly
- SDS-PAGE band of SLPI on treatment with elastase ([4]; 100 μM SLPI, 200 μM elastase): rapidly disappeared after 45 minute incubation
- selective cleavage sites with elastase from human sputum ([4]; N-terminal sequencing of SDS-PAGE bands): between Ser^15 -Ala^16, and Thr^57 -Arg^58
